Kd data for 5 molecules are collected here from patent publication US20160207960A1 (FEINSTEIN INSTITUTE FOR MEDICAL RESEARCH, published 2016).

B3: rhMD2 (Accession #BAA78717; Glu17-Asn160) with 10-His tag at the C-terminus (receptor, human)
chain: EAQKQYWVCNSSDASISYTYCDKMQYPISINVNPCIELKRSKGLLHIFYIPRRDLKQLYFNLYITVNTMNLPKRKEVICRGSDDDYSFCRALKGETVNTTISFSFKGIKFSKGKYKCVVEAISGSPEEMLFCLEFVILHQPNSNHHHHHHHHHH
notes: range 17-160; From R&D Systems, expressed in E. coli; also called TLR4 co-receptor MD2
B4: Recombinant human (rh) CIRP (Accession #NP_001271; full length) with C-terminal DDK tag (ligand)
chain: MASDEGKLFVGGLSFDTNEQSLEQVFSKYGQISEVVVVKDRETQRSRGFGFVTFENIDDAKDAMMAMNGKSVDGRQIRVDQAGKSSDNRSRGYRGGSAGGRGFFRGGRGRGRGFSRGGGDRGYGGNRFESRSGGYGGSRDYYSSRSQSGGYSDRSSGGSYRDSYDSYATHNE
notes: Bought from Origene, expressed in HEK293 cells; also called recombinant human CIRP; human CIRP; not shown: C-terminal DDK tag

In assay [1] the target is B3. Kind of assay: SPR, 15-mer oligopeptide as analyte over immobilized rhMD2. As for the experimental part:
(§1) Analysis of protein-protein and peptide-protein interactions were conducted using the BIAcore T200 instrument (GE Healthcare). Binding reactions were performed in 1×PBS buffer containing 0.01% Tween-20 (pH 7.4). The CM5 dextran chip (flow cell-2) was first activated by injection with 89 μl of 0.1 M […] and 0.1 M N-hydroxysuccinimide. An aliquot of 200 μl of 5 μg/ml of the ligand diluted in 10 mM sodium acetate (pH 4.5) was injected into flow cell-2 of the CM5 chip for immobilization. Next, 135 μl of 1 M ethanolamine (pH 8.2) was then injected to block the remaining active sites. The flow cell-1 without coating with the ligand was used as a control to evaluate nonspecific binding. The binding analyses were performed at flow rate of 30 μl/min at 25° C. […] The signal from the blank channel (flow cell-1) was subtracted from the channel (flow-cell 2) coated with the ligand. Data were analyzed by the BIAcore T200 Evaluation Software. For all samples, a blank injection with buffer alone was subtracted from the resulting reaction surface data. Data were globally fitted to the Lagmuir model for a 1:1 binding.
(§2) Surface plasmon resonance (SPR) analysis was utilized to determine the physical interaction and binding affinity between rhCIRP and pattern-recognition receptors and MD2.
(Surface plasmon resonance follows binding to a sensor surface in real time, without labels.)

Assay [2] addresses T1, rhTLR4 (Accession #O00206; Glu24-Lys631) with 10-His tag at the C-terminus (human, UniProt O00206 24-631).
T1 construct: range 24-631; From R&D Systems, expressed in mouse myeloma NS0 cells
Kind of assay: SPR, BIAcore T200, positive control; rhMD2 to rhTLR4, positive control. Here is the method:
as §1, §2

Assay [3] deals with B4. Kind of assay: SPR, BIAcore T200, kinetic analysis, 1:1 Langmuir fit; target rhMD2. Here is the method: as §1, §2
For assay [4], the target named is T2, rhTLR2 (Accession #NP_003255; Glu21-Leu590) with 10-His tag at the C-terminus (human, UniProt O60603 21-590).
T2 construct: range 21-590; From R&D Systems, expressed in mouse myeloma NS0 cells
Kind of assay: SPR (BIAcore T200), analyte rhTLR2 over immobilized rhCIRP; apparent KD from kinetic analysis. As for the experimental part:
as §1, §2

Assay [5] concerns the target T3, rhTLR4/MD2 complex (rhTLR4 Glu24-Lys631 co-expressed with rhMD2 Glu17-Asn160, His tag at each protein) (human, UniProt O00206 24-631; Q9Y6Y9 17-160).
T3 construct: range 24-631;range 17-160; Purified from NS0 cells co-expressing both proteins; R&D Systems; not shown: His tag; for the complex only 'His tag at each protein' is said (a general sentence gives a C-terminal 10-His tag for rh)
Kind of assay: SPR, BIAcore T200, kinetic analysis, 1:1 Langmuir fit; target rhTLR4/MD2 complex. Here is the method:
as §1, §2

Assay [6] deals with T1, rhTLR4 (Accession #O00206; …). The experiment in a line: SPR, BIAcore T200, kinetic analysis, 1:1 Langmuir fit; target rhTLR4. Here is the method: as §1, §2
In assay [7] the target is T4, rhRAGE (Accession #Q15109; Ala23-Ala344) with C-terminal 6-His tag (human, UniProt Q15109 23-344).
T4 construct: range 23-344; From Biovision, expressed in HEK293 cells
Kind of assay: SPR (BIAcore T200), analyte rhRAGE over immobilized rhCIRP; apparent KD from kinetic analysis. Here is the method: as §1, §2

T1 sequence (O00206 other isoform, or with tags, fused parts or gaps limits assumed): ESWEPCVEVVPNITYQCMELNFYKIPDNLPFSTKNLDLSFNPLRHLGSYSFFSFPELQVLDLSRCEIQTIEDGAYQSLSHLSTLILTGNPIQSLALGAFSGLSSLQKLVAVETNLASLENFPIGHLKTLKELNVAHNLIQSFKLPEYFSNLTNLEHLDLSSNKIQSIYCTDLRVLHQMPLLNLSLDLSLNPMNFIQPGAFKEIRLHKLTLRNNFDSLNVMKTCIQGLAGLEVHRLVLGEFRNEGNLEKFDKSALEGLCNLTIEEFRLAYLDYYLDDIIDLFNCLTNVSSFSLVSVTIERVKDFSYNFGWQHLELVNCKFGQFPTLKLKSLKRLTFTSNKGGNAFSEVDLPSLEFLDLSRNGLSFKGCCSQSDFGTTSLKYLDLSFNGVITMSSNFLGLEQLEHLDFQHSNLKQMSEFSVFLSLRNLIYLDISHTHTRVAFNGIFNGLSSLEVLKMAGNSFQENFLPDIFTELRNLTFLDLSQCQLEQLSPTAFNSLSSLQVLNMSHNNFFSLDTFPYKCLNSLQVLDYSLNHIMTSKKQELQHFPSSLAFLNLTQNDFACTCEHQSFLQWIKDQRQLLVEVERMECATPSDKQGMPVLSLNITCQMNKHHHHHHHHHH
T3 sequence (O00206 24-631 limits assumed, form in doubt, one chain of several): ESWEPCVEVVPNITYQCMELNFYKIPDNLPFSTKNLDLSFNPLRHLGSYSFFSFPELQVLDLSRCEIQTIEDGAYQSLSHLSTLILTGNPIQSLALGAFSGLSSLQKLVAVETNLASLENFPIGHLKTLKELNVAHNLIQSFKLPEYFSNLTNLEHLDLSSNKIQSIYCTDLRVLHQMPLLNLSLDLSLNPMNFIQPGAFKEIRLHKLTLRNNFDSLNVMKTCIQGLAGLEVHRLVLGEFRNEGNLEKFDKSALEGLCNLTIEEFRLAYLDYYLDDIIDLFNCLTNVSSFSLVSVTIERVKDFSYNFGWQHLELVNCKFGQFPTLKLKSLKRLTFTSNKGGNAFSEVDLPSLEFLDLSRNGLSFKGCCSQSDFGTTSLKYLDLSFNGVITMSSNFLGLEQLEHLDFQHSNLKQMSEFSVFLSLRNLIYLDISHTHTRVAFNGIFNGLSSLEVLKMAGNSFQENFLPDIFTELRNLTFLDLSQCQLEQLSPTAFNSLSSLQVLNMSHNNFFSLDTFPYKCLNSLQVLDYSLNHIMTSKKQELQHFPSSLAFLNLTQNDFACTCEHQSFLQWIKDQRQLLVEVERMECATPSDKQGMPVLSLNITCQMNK
T2 sequence (O60603 other isoform, or with tags, fused parts or gaps limits assumed): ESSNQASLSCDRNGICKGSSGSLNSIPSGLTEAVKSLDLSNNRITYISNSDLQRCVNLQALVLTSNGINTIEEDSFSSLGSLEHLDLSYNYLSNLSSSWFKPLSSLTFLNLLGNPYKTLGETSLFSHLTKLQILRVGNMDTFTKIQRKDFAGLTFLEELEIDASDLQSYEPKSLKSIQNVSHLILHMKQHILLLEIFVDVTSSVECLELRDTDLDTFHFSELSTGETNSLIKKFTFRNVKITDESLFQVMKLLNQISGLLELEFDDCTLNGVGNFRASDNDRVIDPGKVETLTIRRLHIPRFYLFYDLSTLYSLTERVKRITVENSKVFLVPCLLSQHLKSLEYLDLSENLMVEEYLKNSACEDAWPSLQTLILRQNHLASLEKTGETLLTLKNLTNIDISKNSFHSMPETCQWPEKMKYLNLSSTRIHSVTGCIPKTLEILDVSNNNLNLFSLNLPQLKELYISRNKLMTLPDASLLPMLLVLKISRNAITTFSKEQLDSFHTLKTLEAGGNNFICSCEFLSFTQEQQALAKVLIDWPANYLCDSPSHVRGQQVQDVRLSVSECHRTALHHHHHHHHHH
T4 sequence (Q15109 other isoform, or with tags, fused parts or gaps limits assumed): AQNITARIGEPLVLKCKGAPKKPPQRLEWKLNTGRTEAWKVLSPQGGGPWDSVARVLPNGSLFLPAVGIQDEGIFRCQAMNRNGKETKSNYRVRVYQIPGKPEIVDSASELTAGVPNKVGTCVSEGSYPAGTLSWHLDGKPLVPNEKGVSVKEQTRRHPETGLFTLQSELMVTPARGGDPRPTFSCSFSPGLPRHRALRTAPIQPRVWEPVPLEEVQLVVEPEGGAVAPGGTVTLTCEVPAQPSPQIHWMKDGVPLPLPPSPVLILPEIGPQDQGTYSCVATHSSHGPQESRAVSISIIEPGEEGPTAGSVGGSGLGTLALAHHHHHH

B1: human CIRP 15-mer oligopeptide aa 101-115 (peptide)
peptide: RGFFRGGRGRGRGFS
As for B1, the Kd in assay [1] stood at 1510 nM.

B2: CIRP-derived oligopeptide C23 (human CIRP aa 111-125) (peptide)
peptide: GRGFSRGGGDRGYGG
In assay [1], B2 gave a Kd of 29.7 nM.
In the case of B3, the Kd in assay [2] turned out to be 53.7 nM; in assay [3], 302 nM.
For the molecule B4, the Kd is 258 nM in assay [4], 239 nM in assay [5], 617 nM in assay [6] and 33.1 nM in assay [7].

B5: CIRP-derived oligopeptide C22 (human CIRP aa 106-120) (peptide)
peptide: GGRGRGRGFSRGGGD
notes: Synthetic, Genscript
Consider B5, for which, in assay [1], the Kd was 129 nM.
